Read-outs that look alike come from different tables or passages of the source. Starred links: 1 amine or outer side, 2 acyl side, 3 side chain; linkers in the order of their positions; H or OH if unused. Non-standard residues stand in square brackets, D forms with d. Groups on a side chain read outwards from the residue. *: point of attachment. C20 diacid = O=C(O)CCCCCCCCCCCCCCCCCCC(=O)*; γGlu = O=C(O)[C@H](CCC(=O)[*:2])N[*:1]; Aib = CC(C)(N)C(=O)O
T1: human GIP receptor (human, UniProt P48546 22-466)
T1 sequence (looked up): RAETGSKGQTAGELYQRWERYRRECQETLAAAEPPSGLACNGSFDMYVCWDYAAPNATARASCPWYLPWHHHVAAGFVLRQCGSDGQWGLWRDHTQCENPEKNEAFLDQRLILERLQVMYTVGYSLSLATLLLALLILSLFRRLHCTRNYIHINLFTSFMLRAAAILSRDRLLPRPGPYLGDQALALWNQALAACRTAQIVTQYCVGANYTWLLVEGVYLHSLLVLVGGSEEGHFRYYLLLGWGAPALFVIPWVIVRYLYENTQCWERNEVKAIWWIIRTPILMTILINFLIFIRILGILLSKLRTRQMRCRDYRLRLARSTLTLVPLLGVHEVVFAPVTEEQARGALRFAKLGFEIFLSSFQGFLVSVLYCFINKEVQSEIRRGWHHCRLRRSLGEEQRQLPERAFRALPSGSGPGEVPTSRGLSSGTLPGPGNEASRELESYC


What was measured:
Experiment in all cases: cell-based or functional assay
[1] = target: human GLP-1 receptor (human, UniProt P43220 24-463)
[2] = target: T1, human GIP receptor
[3] = target: human GLP-1 receptor (human) (UniProt P43220)
[4] = target: T1, human GIP receptor; remark: listed apart in the source
[5] = target: T1, human GIP receptor; remark: listed apart in the source

Exendin-4, sequence (P26349 48-86 limits assumed): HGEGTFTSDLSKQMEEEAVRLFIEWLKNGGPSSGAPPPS
human GLP-1 receptor (human), sequence (P43220 24-463): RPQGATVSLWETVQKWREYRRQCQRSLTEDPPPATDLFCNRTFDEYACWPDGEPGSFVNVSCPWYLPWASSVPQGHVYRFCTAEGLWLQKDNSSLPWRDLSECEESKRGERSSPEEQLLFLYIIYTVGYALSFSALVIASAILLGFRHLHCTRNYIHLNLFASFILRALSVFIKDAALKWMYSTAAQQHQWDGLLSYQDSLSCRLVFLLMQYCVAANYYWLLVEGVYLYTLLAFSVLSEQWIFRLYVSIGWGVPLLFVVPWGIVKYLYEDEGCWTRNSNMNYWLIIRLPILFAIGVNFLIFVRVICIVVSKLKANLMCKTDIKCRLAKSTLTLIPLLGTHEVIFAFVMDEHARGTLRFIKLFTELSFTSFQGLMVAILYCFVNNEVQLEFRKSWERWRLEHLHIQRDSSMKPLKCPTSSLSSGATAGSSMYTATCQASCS

Row | Molecule | EC50 hGLP1 R (cAMP, HEK293 cells expressing the GLP-1R) [1] [nM] | EC50, hGIP-R level of cAMP (HEK293 cells expressing human GIP R) [2] [nM] | EC50 hGLP1 R (cAMP, HEK293 cells expressing the GLP-1R) [3] [nM] | EC50 hGIP R (cAMP, HEK293 cells expressing the GIP R) [4] [nM] | EC50, hGIP-R level of cAMP (HEK293 cells expressing human GIP R) [5] [nM]
1 | human GIP (from UniProt P09681 52-93) (ligand) | > 100 | 0.003 | – | – | –
2 | Exendin-4 (from UniProt P26349 48-86) (peptide) | – | – | 0.004 | – | –
3 | YXEGTFISDYSIELDKIAAQDFIEWLLAGPSSGAPPPSK (D-Ala at 2; Lys 39 side chain acylated: K((19-Carboxy-nonadecanoyl)-[(Piperazine-1-yl)-acetyl]-Peg3-Peg3); C-terminal amide (-NH2)) [Compound 37] | > 10 | – | – | 0.006 | 0.016
4 | H-Y[Aib]EGTFISDYSIELDKK([Peg3-Peg3-γGlu-C20 diacid])AQRAFVEWLLAQGPSSGAPPPS-NH2 [Compound 17] | > 3 | – | – | 0.016 | 0.007
5 | H-Y[Aib]EGTFISDYSIELDKK([Peg3-Peg3-γGlu-C20 diacid])AAQDFVNWLLAGPSSGAPPPS-NH2 [Compound 15] | > 100 | – | – | 0.024 | 0.012
6 | H-Y[Aib]EGTFISDYSIELDKK([Peg3-Peg3-γGlu-C20 diacid])AAQDFIEWLLAGPSSGAPPPS-NH2 [Compound 32] | > 100 | – | – | 0.012 | 0.02
7 | H-Y[Aib]EGTFISDYSIELDKK([Peg3-Peg3-γGlu-C20 diacid])AQRAFIEWLLAQGPSSGAPPPS-NH2 [Compound 18] | > 3 | – | – | 0.007 | 0.006
8 | H-Y[Aib]EGTFISDYSIELEKK([Peg3-Peg3-γGlu-C20 diacid])AQRAFVEWLLAQGPSSGAPPPS-NH2 [Compound 12] | > 3 | – | – | 0.009 | 0.009
9 | H-Y[Aib]EGTFISDYSIELEKIAQRAFVEWLLAQGPSSGAPPPSK([Peg3-Peg3-γGlu-C20 diacid])-NH2 [Compound 13] | > 10 | – | – | 0.008 | 0.014
10 | H-Y[Aib]EGTFISDYSIELDKIAAQDFVNWLLAGPSSGAPPPSK([Peg3-Peg3-γGlu-C20 diacid])-NH2 [Compound 16] | > 10 | – | – | 0.012 | 0.016
11 | H-Y[Aib]EGTFISDYSK([Peg3-Peg3-γGlu-C20 diacid])ELDKIAQRAFIEWLLAQGPSSGAPPPS-NH2 [Compound 35] | > 3 | – | – | 0.011 | 0.008
12 | H-Y[Aib]EGTFISDYSIELDKK([Peg3-Peg3-γGlu-C20 diacid])AAQDFVNWLLAQGPSSGAPPPS-NH2 [Compound 10] | > 10 | – | – | 0.008 | 0.007
13 | YAEGTFISDYSIELDKKAAQAFIEWLLAQGPSSGAPPPS (Aib at 2; Lys 17 side chain acylated: K((19-Carboxy-nonadecanoyl)-[(Piperazine-1-yl)-acetyl]-Peg3-Peg3); C-terminal amide (-NH2)) [Compound 41] | > 10 | – | – | 0.01 | 0.014
14 | H-Y[Aib]EGTFISDYSIELDKK([Peg3-Peg3-γGlu-C20 diacid])AAQDFINWLLAQGPSSGAPPPS-NH2 [Compound 39] | > 100 | – | – | 0.001 | 0.007
15 | H-Y[Aib]EGTFISDYSIELDKK([Peg3-Peg3-γGlu-C20 diacid])AAQDFVNWLLAAGPSSGAPPPS-NH2 [Compound 30] | > 10 | – | – | 0.014 | 0.009
16 | H-Y[Aib]EGTFISDYSIELEKK([Peg3-Peg3-γGlu-C20 diacid])AAKEFVNWLLAQGPSSGAPPPS-NH2 [Compound 11] | > 3 | – | – | 0.008 | 0.009
17 | H-Y[Aib]EGTFISDYSIELDKK([Peg3-Peg3-γGlu-C20 diacid])AAQAFVNWLLAGPSSGAPPPS-NH2 [Compound 29] | > 100 | – | – | 0.007 | 0.014
18 | H-Y[Aib]EGTFISDYSIELEKIAQRAFVEWLLAQK([Peg3-Peg3-γGlu-C20 diacid])-NH2 [Compound 14] | > 10 | – | – | 0.014 | 0.024
19 | YAEGTFISDYSIELDKKAAQDFIEWLLAGPSSGAPPPS (Aib at 2; Lys 17 side chain acylated: K((19-Carboxy-nonadecanoyl)-[(Piperazine-1-yl)-acetyl]-Peg3-Peg3); C-terminal amide (-NH2)) [Compound 33] | > 10 | – | – | 0.02 | 0.014
20 | H-Y[Aib]EGTFISDYSIELDKK([Peg3-Peg3-γGlu-C20 diacid])HQQDFVNYLLAQGPSSGAPPPS-NH2 [Compound 8] | > 10 | – | – | 0.019 | 0.009
21 | H-Y[Aib]EGTFISDYSIELDK([Peg3-Peg3-γGlu-C20 diacid])IAQRAFIEWLLAQGPSSGAPPPS-NH2 [Compound 34] | > 10 | – | – | 0.017 | 0.011
22 | H-Y[Aib]EGTFISDYSIELDKK([Peg3-Peg3-γGlu-C20 diacid])AAQDFIEWLLAQGPSSGAPPPS-NH2 [Compound 38] | > 100 | – | – | 0.017 | 0.001
23 | H-Y[Aib]EGTFISDYSIELDKK([Peg3-Peg3-γGlu-C20 diacid])AAQDFINWLLAGPSSGAPPPS-NH2 [Compound 31] | > 100 | – | – | 0.009 | 0.012
24 | H-Y[Aib]EGTFISDYSIELDKK([Peg3-Peg3-γGlu-C20 diacid])AAQAFIEWLLAQGPSSGAPPPS-NH2 [Compound 40] | > 10 | – | – | 0.007 | 0.01
25 | H-Y[dA]EGTFISDYSIELDKK([Peg3-Peg3-γGlu-C20 diacid])AQRAFIEWLLAQGPSSGAPPPS-NH2 [Compound 36] | > 10 | – | – | 0.006 | 0.006
